Reference: patent US20160303245A1 (UNIVERSITY OF COPENHAGEN, published 2016)
Read-outs that look alike come from different tables or passages of the source. *1 amine or outer side, *2 acyl side, *3 side chain or, on linkers, in order; H or OH if unused. Where no end group is shown, it is not given here. The star is where a group is joined. γGlu = O=C(O)[C@H](CCC(=O)[*:2])N[*:1]; Stearoyl = CCCCCCCCCCCCCCCCCC(=O)*; Lauroyl = CCCCCCCCCCCC(=O)*; NPEG4 = not defined here; Ava = NCCCCC(=O)O; GABA = NCCCC(=O)O

Key:
Human Serum Albumin [1] = target: T1, Human Serum Albumin (human, UniProt P02768 25-609); assay: calculated from KD at 588 µM HSA (equation 2)
T1 construct: Bought reagent; also called HSA
Experimental: (§1) The assay kit consisted of prefilled wells with increasing concentrations of immobilized HSA as well as two control wells without HSA. The HSA had been immobilized in a random fashion to ensure that all binding sites on HSA were available. To conduct the assay, the wells were incubated with a known concentration of the tested compounds, and the unbound amount of compound was quantified using analytical RP-HPLC (C8 column). The fraction of unbound drug (fᵤ) for each data point was calculated from the RP-HPLC data by comparison to a control sample without HSA.

PSD-95 PDZ1-2 [2] = target: T2, PSD-95 PDZ1-2 (UniProt P78352 61-249, limits assumed); assay: FP competition vs dimeric fluorescent probe, TBS
T2 construct: domain: PDZ1-2; also called PDZ1-2 of PSD-95
T2 sequence (P78352 61-249 limits assumed): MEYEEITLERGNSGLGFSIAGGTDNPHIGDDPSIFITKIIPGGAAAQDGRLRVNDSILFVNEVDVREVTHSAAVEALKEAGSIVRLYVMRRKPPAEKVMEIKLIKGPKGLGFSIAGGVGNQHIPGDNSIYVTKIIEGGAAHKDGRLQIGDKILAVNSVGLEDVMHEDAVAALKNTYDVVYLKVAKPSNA

Human Serum Albumin [3] = target: T1, Human Serum Albumin; assay: calculated from KD(HSA) at 150 µM HSA (equation 2)
PSD-95 PDZ1-2 [4] = target: T2, PSD-95 PDZ1-2; assay: FP competition, TBS + 1% HSA, corrected for fu (free ligand)
Experimental: (§2) The FP values were fitted to a one site competition (variable slope) model in GraphPad Prism. […] The modified FP assay was conducted as described above with 1% HSA in the assay.

PSD-95 PDZ1-2 [5] = target: T2, PSD-95 PDZ1-2; assay: FP competition vs dimeric fluorescent probe, TBS + 1% HSA (apparent)
Human Serum Albumin [6] = target: T1, Human Serum Albumin; assay: Transil XL HSA binding kit (immobilized HSA), unbound compound by RP-HPLC
Experimental: as §1

PSD-95 PDZ1-2 [7] = target: T2, PSD-95 PDZ1-2; assay: FP competition, TBS + 1% HSA
Experimental: as §2
The synthesized FA-linked dimeric ligands were evaluated for their affinity to PSD-95 PDZ1-2 in the FP assay.

Human Serum Albumin [8] = target: T1, Human Serum Albumin; assay: calculated from KD(HSA) at 150 µM HSA (equation 2); remark: listed apart in the source
Human Serum Albumin [9] = target: T1, Human Serum Albumin; assay: Transil XL HSA binding kit (immobilized HSA), unbound compound by RP-HPLC; remark: listed apart in the source
Experimental: as §1

PSD-95 PDZ1-2 [10] = target: T2, PSD-95 PDZ1-2; assay: FP competition vs dimeric fluorescent probe, TBS; remark: listed apart in the source
PSD-95 PDZ1-2 [11] = target: T2, PSD-95 PDZ1-2; assay: FP competition, TBS + 1% HSA, corrected for fu (free ligand); remark: listed apart in the source
PSD-95 PDZ1-2 [12] = target: T2, PSD-95 PDZ1-2; assay: FP competition vs dimeric fluorescent probe, TBS + 1% HSA (apparent); remark: listed apart in the source
Experimental: as §2

fb (%), fraction bound to HSA (Human Serum Albumin [1]) | Ki (PSD-95 PDZ1-2 [2]) | fu (%), fraction unbound (Human Serum Albumin [3]) | Ki (PSD-95 PDZ1-2 [4]) | Ki (PSD-95 PDZ1-2 [5]) | Kd (Human Serum Albumin [6]) | fold lower apparent affinity than the dimeric ligands linked to the shorter FAs (C12:0 or C11:0-COOH) (PSD-95 PDZ1-2 [7]) | fu (%), fraction unbound (Human Serum Albumin [8]) | Kd (Human Serum Albumin [9]) | Ki (PSD-95 PDZ1-2 [10]) | Ki (PSD-95 PDZ1-2 [11]) | Ki (PSD-95 PDZ1-2 [12]) | fold affinity loss in TBS+HSA (PSD-95 PDZ1-2 [7]) | Binder
91.4% | 20.5 nM | 27.1% | 2.6 nM | 13.4 nM | 55700 nM |  |  |  |  |  |  |  | IETAV (not fully specified; also: dimer: N-termini of two peptides joined through NPEG4 linker, Synthetic dimer NPEG4(IETAV)2 with fatty acid on the linker nitrogen; also called compound 9) [FA-linked dimeric ligand 9]
92.3% | 15.4 nM | 24.7% | 5.5 nM | 27.9 nM | 49300 nM |  |  |  |  |  |  |  | {C11:0‑COOH acyl-GABA-NPEG4}-IETAV (not fully specified; reading uncertain; also: dimer: two chains joined at N-termini through NPEG4, linker taken from row above (blank cell), Synthetic dimer NPEG4(IETAV)2 with fatty acid on the linker nitrogen; also called compound 2) [FA-linked dimeric ligand 2]
94.5% | 9.2 nM | 18.6% | 669 nM | 3590 nM | 34300 nM | > 50 fold |  |  |  |  |  |  | {C17:0‑COOH acyl-γGlu-NPEG4}-IETAV (not fully specified; reading uncertain; also: dimer: two chains joined at N-termini through NPEG4, linker taken from rows above (blank cell), Synthetic dimer NPEG4(IETAV)2 with fatty acid on the linker nitrogen; also called compound 8) [FA-linked dimeric ligand 8]
95.7% | 13.6 nM | 15.1% | 3.2 nM | 27.2 nM | 26600 nM |  |  |  |  |  |  |  | {Lauroyl-GABA-NPEG4}-IETAV (not fully specified; reading uncertain; also: dimer: two chains joined at N-termini through NPEG4, Synthetic dimer NPEG4(IETAV)2 with fatty acid on the linker nitrogen; also called compound 1) [FA-linked dimeric ligand 1]
 |  |  |  |  |  |  | 35.6% | 83000 nM |  |  |  |  | {Stearoyl-GABA-NPEG4}-IETDV (not fully specified; reading uncertain; also: dimer: two chains joined at N-termini through NPEG4, IETDV analogue of compound 3, synthesized analogously to 1-12; also called compound 13) [FA-linked dimeric ligand 13]
96.5% | 11.4 nM | 11.5% | 654 nM | 5720 nM | 19400 nM | > 50 fold | 11.5% | 19400 nM | 11.4 nM | 654 nM | 5720 nM |  | {C17:0‑COOH acyl-GABA-NPEG4}-IETAV (not fully specified; reading uncertain; also: dimer: two chains joined at N-termini through NPEG4, Synthetic dimer NPEG4(IETAV)2 with fatty acid on the linker nitrogen; also called compound 4) [FA-linked dimeric ligand 4]
71% | 13.9 nM | 61.5% | 10.9 nM | 18.5 nM | 240000 nM |  |  |  |  |  |  |  | {C11:0‑COOH acyl-Ava-NPEG4}-IETAV (not fully specified; reading uncertain; also: dimer: two chains joined at N-termini through NPEG4, linker taken from row above (blank cell), Synthetic dimer NPEG4(IETAV)2 with fatty acid on the linker nitrogen; also called compound 10) [FA-linked dimeric ligand 10]
95.8% | 30.2 nM | 14.7% | 2.4 nM | 24 nM | 25800 nM |  |  |  |  |  |  |  | {Lauroyl-γGlu-NPEG4}-IETAV (not fully specified; reading uncertain; also: dimer: two chains joined at N-termini through NPEG4, Synthetic dimer NPEG4(IETAV)2 with fatty acid on the linker nitrogen; also called compound 5) [FA-linked dimeric ligand 5]
99.2% | 11.1 nM | 3.1% | 57.2 nM | 1890 nM | 4800 nM | > 50 fold | 3.1% | 4800 nM | 11.1 nM | 57.2 nM | 1890 nM | 50 fold | {Stearoyl-GABA-NPEG4}-IETAV (not fully specified; reading uncertain; also: dimer: two chains joined at N-termini through NPEG4, Synthetic dimer NPEG4(IETAV)2 with fatty acid on the linker nitrogen; also called compound 3) [FA-linked dimeric ligand 3]
77.6% | 14.3 nM | 50.7% | 4.1 nM | 9.7 nM | 154000 nM |  |  |  |  |  |  |  | IETAV (also: dimer: two peptides joined by a linker, no fatty acid, also called dimeric ligand UCCB01-125) [UCCB01-125]
97.9% | 26.5 nM | 7.8% | 16.8 nM | 1890 nM | 12700 nM | > 50 fold |  |  |  |  |  | 50 fold | {Stearoyl-Ava-NPEG4}-IETAV (not fully specified; reading uncertain; also: dimer: two chains joined at N-termini through NPEG4, linker taken from rows above (blank cell), Synthetic dimer NPEG4(IETAV)2 with fatty acid on the linker nitrogen; also called compound 11) [FA-linked dimeric ligand 11]
96.2% | 11.5 nM | 8.3% | 250 nM | 2930 nM | 23500 nM | > 50 fold |  |  |  |  |  |  | {C17:0‑COOH acyl-Ava-NPEG4}-IETAV (not fully specified; reading uncertain; also: dimer: two chains joined at N-termini through NPEG4, linker taken from rows above (blank cell), Synthetic dimer NPEG4(IETAV)2 with fatty acid on the linker nitrogen; also called compound 12) [FA-linked dimeric ligand 12]
98.9% | 17 nM | 4.3% | 59.1 nM | 1390 nM | 6800 nM | > 50 fold | 4.3% | 6800 nM | 17 nM | 59.1 nM | 1390 nM | 50 fold | {Stearoyl-γGlu-NPEG4}-IETAV (not fully specified; reading uncertain; also: dimer: two chains joined at N-termini through NPEG4, Synthetic dimer NPEG4(IETAV)2 with fatty acid on the linker nitrogen; also called compound 7) [FA-linked dimeric ligand 7]
90.1% | 33.7 nM | 30.1% | 7 nM | 26.4 nM | 64600 nM |  |  |  |  |  |  |  | {C11:0‑COOH acyl-γGlu-NPEG4}-IETAV (not fully specified; reading uncertain; also: dimer: two chains joined at N-termini through NPEG4, linker taken from row above (blank cell), Synthetic dimer NPEG4(IETAV)2 with fatty acid on the linker nitrogen; also called compound 6) [FA-linked dimeric ligand 6]
